Experimental data published in patent US20160185837A1 (Medimmune Limited, priority 2013, published 2016).

T1: hGIPr (C3) (Homo sapiens, UniProt P48546)
T1 construct: expressed in transfected cells
T1 sequence (P48546 22-466): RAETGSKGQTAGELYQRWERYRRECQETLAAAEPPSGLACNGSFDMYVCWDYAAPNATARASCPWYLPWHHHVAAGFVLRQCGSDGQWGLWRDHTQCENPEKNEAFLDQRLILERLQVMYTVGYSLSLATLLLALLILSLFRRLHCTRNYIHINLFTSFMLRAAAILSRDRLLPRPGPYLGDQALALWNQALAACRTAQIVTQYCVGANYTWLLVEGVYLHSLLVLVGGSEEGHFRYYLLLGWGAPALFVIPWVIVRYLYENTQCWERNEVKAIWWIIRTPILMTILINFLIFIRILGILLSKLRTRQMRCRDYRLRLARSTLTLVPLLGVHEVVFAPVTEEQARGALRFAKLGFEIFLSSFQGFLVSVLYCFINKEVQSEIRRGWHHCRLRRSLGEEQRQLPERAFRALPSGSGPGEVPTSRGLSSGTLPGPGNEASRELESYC


Columns and labels:
hGIPr (C3) = target: T1, hGIPr (C3); experiment: BSA-cAMP assay, second human GIPr cell line hGIPr (C3); type: cell-based; settings: Batch 1, second hGIPr cell line, read-out: hGIPr (C3) cAMP activity EC50
Method: For human GIPr, two different lines were used, shown as “hGIPr” and “hGIPr (C3)” in Table 11. Peptide activation of these various receptors results in downstream production of cAMP second messenger that can be measured in a functional activity assay.
One basic cAMP assays was performed, differing in the medium used for the assay, the “BSA-cAMP assay”:
BSA-based assay medium: 0.1% bovine serum albumin (BSA) in
Hanks Balanced Salt Solution (GIBCO or Sigma), containing 0.5 mM IBMX (Sigma #17018);
In certain aspects, the assay can also be carried out in medium supplemented with serum albumin that corresponds to the receptor being tested, e.g., human serum albumin for testing cAMP activity at hGIPr or hGLP-1r, rat serum albumin for testing cAMP activity at rGIPr or rGLP-1r, and so on. […]
cAMP levels were measured using a commercially available cAMP dynamic 2 HTRF kit (Cisbio, Cat #62AM4PEJ), following the two step protocol as per manufacturer's recommendations. […] Plates were incubated at room temperature for one hour and then read on an Envision (Perkin Elmer) using excitation wavelength of 320 nm and emission wavelengths of 620 nm & 665 nm. Data was transformed to % Delta F as described in manufacturer's guidelines and then transformed to percent activation of maximal native agonist response and analysed by 4-parameter logistic fit to determine EC50 values. […]

[1] = Extended pharmacokinetics, serum ELISA for protein (Fc) detection; type: in vivo, CD male rats; settings: 1 mg/kg subcutaneously or intravenously, serum out to 168 hours
Method: More extended pharmacokinetic assays to determine protein stability and activity were performed as follows. CD male rats (n=3) were injected subcutaneously or intravenously with 1 mg/kg IP088 or GLP1a-Fc. Periodic serum samples were obtained out to 168 hours. The serum samples were subjected to ELISA for protein (Fc) detection by the following method. ELISA plates (Costar 3690) were coated with Mouse anti-human IgG (JCD-10) 1/500 in PBS (final concentration 1 μg/ml). […] was added to each well and the plates were incubated overnight at 4° C. Following washing with PBS-Tween (PBS-T), the plates were blocked with […] 1% BSA in PBS for 1 h at RT with gentle shaking. Following washing with PBS-T, standards, and dilutions of […] samples were added (50 μl/well), and the plate was incubated for 2 h at RT with gentle shaking. Following washing […] biotinylated mouse anti-human IgG (JCD-10) diluted 1/1000 in ELISA incubation buffer (final concentration 0.5 μg/ml) was added to each well and the plates were incubated for 1 h at RT with gentle shaking. Following washing […] of Streptavidin-HRP diluted 1/1000 in ELISA incubation buffer was added to each well, and the plates were incubated for 45 min at RT with gentle shaking. […]

[2] = Preliminary pharmacokinetics in mouse, serum activity at hGLP-1r by cAMP assay; type: in vivo; settings: 1 mg/kg subcutaneously, C57 Bl/6J mice, cAMP assay in HBSS/HEPES 0.1% BSA
Method: Preliminary pharmacokinetics in mouse was examined as follows: C57 Bl/6J mice were injected with 1 mg/kg (subcutaneously) with either IP088 or GLP1a-Fc, and serum samples were taken over time (3 animals per time point). The serum samples were then measured for activity at the hGLP-1r by the cAMP assay in HBSS/HEPES 0.1% BSA, as described above.

PK by Activity = experiment: PK by Activity
Method: Table printed on a drawing sheet, FIG. 3D-F
Circles: IV injection of 1 mg/kg, squares: subcutaneous injection of 1 mg/kg. Pharmacokinetic parameters Cmax, bioavailability (F %) and half-life T1/2 are compared in panel C.
Circles: IV injection of 1 mg/kg, squares: subcutaneous injection of 1 mg/kg. Pharmacokinetic parameters Cmax, bioavailability (F %) and half life T112 are compared in panel F.
First reader's note: Panel F of FIG. 3D-F; the pharmacokinetic parameters were derived from plasma levels measured by activity (sheet heading 'PK by Activity').

EC50 (hGIPr (C3)) | Molecule | PK profile by Fc ELISA (Cmax, bioavailability, half-life), in words [1] | time for which serum activity at hGLP-1r is maintained in the nanomolar range in vivo [2] | Cmax (PK by Activity) | F (%) (PK by Activity) | t½ (PK by Activity)
13 nM | IP367 (protein) YSEGTFTSDYRILKERQAIDEFIAWLLKGGAAAGGSGSTASSGSGSATGGGGAATHTCPPC | – | – | – | – | –
– | IP088: Fc fusion, IgG1-TM, SEQ ID NO:105; agonist peptide YSEGTFTSDYSKLLEEEAVRLFIEWLVKGP (SEQ ID NO:15) (protein, also: Fc fusion, IgG1-TM) YSEGTFTSDYSKLLEEEAVRLFIEWLVKGPAAAGGSGSTASSGSGSATGGGGAATHTCPPCPAPEF | equivalent PK profiles | at least 48 hours | 98 nM | 72% | 24 h
